This note sets out measurements from PMC3464217.

The target of this test is recombinant gp160 (HIV (IIIB or MN/LAI)). Briefly: SPR. The settings on record: bispecific antibody.

As usually defined, the Kd is the equilibrium constant for the complex coming apart.

Turning to HY-[Hx4]-7B2 (from UniProt P01857), the Ka came to 1.7e+10 M⁻¹.
Turning to “HY-[Fx2-Hx4-Fx2]-7B2 (from UniProt P01857)”, the Ka was 4.6e+10 M⁻¹ and the Kd was 0.021 nM.
